Measurements reported in the RNAGym collection of RNA variant scans (doi:10.7554/elife.80360).

B1: Hairpin Ribozyme (parent)
chain: GUCCUCUUUCACGUGCGCGUGAAAGAGAGAAGUGAACCAGAGAAACACACGUUGUGGUAUAUUACCUGGUA

Variants of: B1
Assay: self-cleavage, relative activity (ratio to wild type); higher = more cleavage; co-transcriptional

Variant | self-cleavage
GUCCUCUGUCACGUGCGCGUGAAAGAGAGAAGUGAUCCAGAGAAACACACGUUGUGGUAUAUUACCUGGUA | 0.557
GUCCUCUGUCACGUGCGCGUGAAAGAGAGAAGUGAACCAGAGAAACACACGUUGUGGUAUAUUACCUGGUC | 1.34
GUCCUCUGUCACGUGCGCGUGAAACAGAGAAGUGAACCAGAGAAACACACGUUGUGGUAUAUUACCUGGUA | 0.0293
GUCCUCUGUCACGUGCGCGUGAAAGAGAGAAGUGAACCAGAGAAACACACGUUGUGGUAUCUUACCUGGUA | 0.189
GUCCUCUGUCACGUGCGCGUGAAAGAGAGAAGUGAACCAGAGAAACACACGUUGUGGUAUUUUACCUGGUA | 0.184
GUCCUCUGUCACGUGCGCGUGAAAGAGAGAAGUGAACCAGAGAACCACACGUUGUGGUAUAUUACCUGGUA | 0.111
GUCCUCUGUCACGUGCGCGUGAAAGAGAGAAGUGCACCAGAGAAACACACGUUGUGGUAUAUUACCUGGUA | 0.715
GUCCUCUGUCACGUGCGCGUGAAAGAGAGGAGUGAACCAGAGAAACACACGUUGUGGUAUAUUACCUGGUA | 0.119
GUCCUCUGUCACGUGCGCGUGAAAGAGAGCAGUGAACCAGAGAAACACACGUUGUGGUAUAUUACCUGGUA | 0.141
GUCCUCUGUCACGUGCGCGUGAAAGACAGAAGUGAACCAGAGAAACACACGUUGUGGUAUAUUACCUGGUA | 0.139
GUCCUCUGUCACGUGCGCGUGAAAGAAAGAAGUGAACCAGAGAAACACACGUUGUGGUAUAUUACCUGGUA | 0.43
GUCCUCUGUCACGUGCGCGUGAAAGAGAAAAGUGAACCAGAGAAACACACGUUGUGGUAUAUUACCUGGUA | 0.154
GUCCUCUGUCACGUGCGCGUGAAAGAGAUAAGUGAACCAGAGAAACACACGUUGUGGUAUAUUACCUGGUA | 0.112
GUCCUCUGUCACGUGCGCGUUAAAGAGAGAAGUGAACCAGAGAAACACACGUUGUGGUAUAUUACCUGGUA | 0.523
GUCCUCUGUCAAGUGCGCGUGAAAGAGAGAAGUGAACCAGAGAAACACACGUUGUGGUAUAUUACCUGGUA | 0.395
GUCCUCUGUCAUGUGCGCGUGAAAGAGAGAAGUGAACCAGAGAAACACACGUUGUGGUAUAUUACCUGGUA | 0.447
GUCCUCUGUCACGUGCGCGUGAAAGAGAGAAGUGAAUCAGAGAAACACACGUUGUGGUAUAUUACCUGGUA | 0.487
GUCCUCUGUCACGUGCGCGUGAAAGAGAGAAGUGAAGCAGAGAAACACACGUUGUGGUAUAUUACCUGGUA | 0.191
GUCCUCUGUCACGUGCUCGUGAAAGAGAGAAGUGAACCAGAGAAACACACGUUGUGGUAUAUUACCUGGUA | 0.651

Variant | self-cleavage
GUCCUCUGUCACGUGCGCGUGAAAGAGAGAAGUGAACGAGAGAAACACACGUUGUGGUAUAUUACCUGGUA | 0.268
GUCCUCUGUCACGUGCGCGUGAGAGAGAGAAGUGAACCAGAGAAACACACGUUGUGGUAUAUUACCUGGUA | 0.759
GUCCUCUGUCACGUGCGCGUGAAAGAGAGAAGUGAACCAGAGUAACACACGUUGUGGUAUAUUACCUGGUA | 0.228
GUCCUCUGUCACGUGCGCGUGAAAGAGAGAAGUGAACCAGAGCAACACACGUUGUGGUAUAUUACCUGGUA | 0.152
GUCCUCUGUCACUUGCGCGUGAAAGAGAGAAGUGAACCAGAGAAACACACGUUGUGGUAUAUUACCUGGUA | 0.438
GUCCUCUGUCACGUGCGCGUGAAUGAGAGAAGUGAACCAGAGAAACACACGUUGUGGUAUAUUACCUGGUA | 0.595
GUCCUCUGUCACGUGCGCGUGAACGAGAGAAGUGAACCAGAGAAACACACGUUGUGGUAUAUUACCUGGUA | 0.592
GUCCUCUGUCACGUGCGGGUGAAAGAGAGAAGUGAACCAGAGAAACACACGUUGUGGUAUAUUACCUGGUA | 0.518
GUCCUCUGUCACGUGCGCGUGAAAGAGAGAAGUGAACCAGAGAAACCCACGUUGUGGUAUAUUACCUGGUA | 0.266
GUCCUCUGUCACGUGCGCGUGAAAGAGAGAAGUGAACCGGAGAAACACACGUUGUGGUAUAUUACCUGGUA | 0.263
GUCCUCUGUCACGUGCGCGUGAAAGGGAGAAGUGAACCAGAGAAACACACGUUGUGGUAUAUUACCUGGUA | 0.673
GUCCUCUGUCACGUGCGCGUGAAAGAGAGAAGUGAACCAGAGAAACACACGUUGUGGUAUAUUACGUGGUA | 0.162
GUCCUCUGUCACGUGCGCGUGAAAGAGAGAAGUGAACCAGAGAAACACACGUUGUGGUAUAUUACAUGGUA | 0.169
GUCCUCUGUCACGUGCGCGUGAAAGAGCGAAGUGAACCAGAGAAACACACGUUGUGGUAUAUUACCUGGUA | 0.433
GUCCUCUGUCACGUGCGCGUGAAAGAGUGAAGUGAACCAGAGAAACACACGUUGUGGUAUAUUACCUGGUA | 0.514
GUCCUCUGUCACGUGCGCGUGAAAGAGAGAAGUGAACCAGAGAAACACACGUUGUGGUAUAUUGCCUGGUA | 0.476
GUCCUCUGUCACGUGCGCGUGAAAGAGAGAAGUGAACCAGAGAAACAUACGUUGUGGUAUAUUACCUGGUA | 0.0825
GUCCUCUGUCACGUGCGCGUGAAAGAGAGAAGUGAACCAGAGAAACAAACGUUGUGGUAUAUUACCUGGUA | 0.146
GUCCUCUGUCACGUGCGCGUGAAAGAGAGAAGUGAACCAGAGAAACAGACGUUGUGGUAUAUUACCUGGUA | 0.138
